Source: patent publication US20090136503A1 (BEIJING COTIMES BIOTECH, published 2009)

What was measured:
[1] = biological target: TRAIL-R1 on the surface of human tumor cells (human, UniProt O00220 24-468); experiment: cell-based or functional assay
[2] = biological target: Human IgG1 (control antigen) (human); experiment: ELISA; human IgG1 captured on goat anti-human IgG, antibody at 2 µg/ml
[3] = biological target: T1, TRAIL-R3-Fc fusion protein (human, UniProt O14798 26-221, limits assumed); experiment: ELISA: plate coated with TRAIL-R3-Fc at 1 µg/ml, HRP goat anti-mouse IgG, TMB
T1 construct: The origin of the protein is not described; also called TRAIL-R3-Fc fusion antigen; not shown: human IgG1 Fc
T1 sequence (looked up): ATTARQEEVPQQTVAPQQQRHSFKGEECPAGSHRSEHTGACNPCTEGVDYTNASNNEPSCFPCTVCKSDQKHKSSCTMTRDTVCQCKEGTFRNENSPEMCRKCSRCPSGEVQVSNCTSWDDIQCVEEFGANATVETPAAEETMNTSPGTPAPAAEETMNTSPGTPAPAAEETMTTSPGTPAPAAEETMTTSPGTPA

[4] = biological target: T2, TRAIL-R4-Fc fusion protein (human, UniProt Q9UBN6 56-211); experiment: ELISA: plate coated with TRAIL-R4-Fc at 1 µg/ml, HRP goat anti-mouse IgG, TMB
T2 construct: The origin of the protein is not described; also called TRAIL-R4-Fc fusion antigen; not shown: human IgG1 Fc
T2 sequence (looked up): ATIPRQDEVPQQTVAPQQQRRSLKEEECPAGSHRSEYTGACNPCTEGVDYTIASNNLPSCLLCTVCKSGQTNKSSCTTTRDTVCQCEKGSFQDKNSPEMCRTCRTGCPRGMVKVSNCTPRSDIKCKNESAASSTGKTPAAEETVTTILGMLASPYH

[5] = biological target: BSA (bovine serum albumin), negative control (bovine, UniProt P02769 25-607); experiment: ELISA: plate coated with BSA (control) at 1 µg/ml, HRP goat anti-mouse IgG, TMB
Sequence of BSA (bovine serum albumin), negative control (P02769 25-607 limits assumed): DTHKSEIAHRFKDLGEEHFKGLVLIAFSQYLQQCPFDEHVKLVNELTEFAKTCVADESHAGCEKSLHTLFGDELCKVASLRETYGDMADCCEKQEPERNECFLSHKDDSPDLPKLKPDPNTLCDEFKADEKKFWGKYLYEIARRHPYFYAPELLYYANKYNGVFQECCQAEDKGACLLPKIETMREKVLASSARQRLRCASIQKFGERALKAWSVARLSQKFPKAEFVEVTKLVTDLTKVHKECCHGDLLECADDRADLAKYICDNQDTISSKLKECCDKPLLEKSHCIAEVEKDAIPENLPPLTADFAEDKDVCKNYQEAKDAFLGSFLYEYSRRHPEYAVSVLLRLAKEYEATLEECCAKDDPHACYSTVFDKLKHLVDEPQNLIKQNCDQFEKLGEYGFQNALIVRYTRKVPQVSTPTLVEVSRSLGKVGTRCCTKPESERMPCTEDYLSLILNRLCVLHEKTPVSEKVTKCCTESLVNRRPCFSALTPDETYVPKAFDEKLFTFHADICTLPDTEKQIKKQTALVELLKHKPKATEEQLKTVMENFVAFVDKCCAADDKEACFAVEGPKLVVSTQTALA

[6] = biological target: T3, TRAIL-R2 on the surface of human tumor cells (human, UniProt O14763 56-440); experiment: flow cytometry on Jurkat cells (said to express TRAIL-R2 only, not TRAIL-R1), PE goat anti-mouse IgG1
T3 construct: whole, on cells; also called DR5; CD262

B1: CTB007 murine monoclonal antibody against TRAIL-R1 (hybridoma CGMCC 1733) (antibody, V domains shown)
VH: EVQLQQSGAELVKPGASVKLSCTASGFNIKDTYMHWVKQRPEQGLEWIGRIDPANGNTKYDPKFQGKATITADTSSNTAYLQLSSLTSEDTAVYYCAYYYVSNAWFTYWGQGTLVTVSA
VL: DIQMTQSPASLSVSVGETVTITCRASENIYSNLEWYQQKQGKSPQLLVYAATNLADGVPSRFSGSGSGTQYSLKINSLQSEDFGSYYCQHFWGTWTFGGGTKLEIK
notes: Murine monoclonal antibody; also called Anti-TRAIL-R1 (CTB007); CTB007-HRP
With B1 the “IC50 (ng/ml), killing of Carov 3 cells, ATPLite cell viability” value [1] was 29.5 ng/mL, the “IC50 (ng/ml), killing of Colo205 cells, ATPLite cell viability” value [1] was 6.2 ng/mL and the “IC50 (ng/ml), killing of Du145 cells, ATPLite cell viability” value [1] was 31.2 ng/mL. The “IC50 (ng/ml), killing of H-2122 cells, ATPLite cell viability” value [1] was 25.4 ng/mL, the “IC50 (ng/ml), killing of MDA231 cells, ATPLite cell viability” value [1] was 8.2 ng/mL and the “IC50 (ng/ml), killing of MIAcap cells, ATPLite cell viability” value [1] was 9.5 ng/mL. The OD 450 nm/650 nm [2] was 0.026 OD, the binding result [3] was “no binding (tested: 1000 ng/ml)” and the binding result [4] was “no binding (tested: 1000 ng/ml)”. B1: no binding (tested: 1000 ng/ml) [5]; no binding [6].
